According to the DeepSol protein solubility set:

assay: soluble on expression in E. coli; label from the status in PepcDB or PDB records

| Sequence | soluble on expression in E. coli |
| --- | --- |
| MGSDKIHHHHHHMPKHLYSLLVVNINMFEKEKEILAKRIAGEIVLSPDPGKTMRKWREIFGISQTELADYLGVSSSVISDYEGGRRKSPGASTIRKFVEALIEIDEKRGGNVIKAFSRTFSSEIPTSAILDIREFDIPVTVKDIVDAVKGEIVANPDLIDRKIYGYTVVDSIQAILEMSAEEFLKLYGWTTERALVFTKVTTGRSPMIAVRVQGLKPAMVVLHGVKRLDELAVKIAEKERVPLVVSKAENETELITGLRRLVTSI | not soluble |
| MKISSIDSIFAAWDGSITEARRLQSDMAERIVLKDEPNLLSEPTLLAGFDVGFEDEGRTTRAAAVLMNAGDLRLLETHVVRVPTSMPYVPGLLSFRELPALLQALTQLSRIPALVFVDGHGIAHPRRLGIAAHFGLVTNLPCIGVAKKRLVGDFVEPGTAFGEHTPILLHGTQVGWALRSKMHCKPLIISPGHKVSLHSALTWTQRCLTGYRLPEPTRQADRLASRRGQKIVSDLPSLLLEHHHHHH | soluble |
| MAHHHHHHERASLITTGPYGHQSGAVYVGNYKVVNRHLATHVDWQNCVWEDYNRDLLVSTTTAHGCDTIARCQCTTGVYFCASKSKHYPVSFEGPGLVEVQESEYYPKRYQSHVLLATGFSEPGDAGGILRCEHGVIGLVTMGGEGVVGFADVRDLLWLEDDAMEQ | soluble |
| MAHHHHHHMARIISASELEKAADALARGNLVAIPTETVYGLGGNALNKEAVEKIFIVKGRPLTDPLICHVSDVEKAMDLWDVHADPEAVELARVLGTAIWPGPLTIVLRANPLLPNSVTGGSGFVGARIPRHEITLRLLQLVNFPVAAPSANTFGHVSPTTADHVLKDLGPKDSSLLIVDGGPCDIGIESTVVKVNNVESVEILRRGGVTLTEVLRALGDKFHPLITIRDTRLRHLSPEMAMDGPGQLLTHYSPNVPSRLLTPSSFTTNLPMDPEGALVEFSSNSSVAAPTEVLLRHTVIIDFGGKLQCLKPGCLAYRDLSVNAQVREACFAVFDALRWTETIPGAEVVLFPLVSGWPHASVDTDLLAAVEDRLFRAASGKVARIRMQSRSV | not soluble |
| MKKYVCTVCGYEYDPAEGDPDNGVKPGTSFDDLPADWVCPVCGAPKSEFEAA | soluble |
| MPRSDGFSPRKNLRRSARDHSRSYAGQCNEDFDDMYAPSSRRRSSGGVDGNGYTRSGRKINHNRYYEEEYHEAISSEEDERRYRTRRSSNSMTYRQQVMQAIDESKRNQKVPPAKRKRIYLSDEEEEDFAEAAHVENTVPERATRRSTRRRSSMHEELGVSEQEESPVRRTRKAAKRLGSEQPEENLAADDPLPMEGGGEIVLPIAEIDGMAEQENEDLIEKIGREEEEEGAEEDEQSGEKDPEEEEDDSSNAESSEESTAPRQYSLRRRQPVVQFNASEARENRRARLEHHRVANQNRHHRNRNGSRRRRSDSDSDSDDMVLPRPDKRQSRPHMHNRGERERGRFMPINMTEKELQSAQHILMDRMRKTDAGQGASDIDPMSVDSSVGFDQVGGLGHHIQSLKEVVLFPMLYPEVFEKFRINPPKGVVFYGPPGTGKTLVARALANECRRGANKVAFFMRKGADCLSKWVGESERQLRLLFDQAYAMRPSIIFFDEIDGLAPVRSSKQDQIHASIVSTLLALMDGLDGRGEVVVIGATNRLDTLDPALRRPGRFDRELRFSLPDLNARRQILDIHTSKWEENKPIPETLDAIAERTSGYCGADLKFLCTEAVLIGLRSRYPHIYMCSERLKLDVATIKITSEHFGHAMRRITPASRRDLTIPSRPLDERTSILLGDTVSNLISLRIPQGYRCVENAMATASSELEQVVRALEPNPTVPAIRLLLCGSEQLADGGQTSYVLPAILAKLDHLPVFSLSVSSLLTDGRPEEAFSNAIQSAMRASATGPCIMLLPSIDEWIKVIPVSVQHMLITCLESMTGFTPILFLSTLDTSFEDAPEYVTEIFRHANCITLNPSRRTIRQKYFEHVIEKINTPPKVFDPRLMRDRRFVEFVEPVDPDEAEDYYEIIETPICMQDIMEKLNNCEYNHADKFVADLILIQTNALEYNPSTTKDGKLIRQMANTLRDAIDDLIECELDESFVERIETVSRMLQDAGVTPTSDKLLTEIPKGFARKKAWSMTNSLAKEIEQWTSEREAENQKMLSKLGVAAPTLELVVVPVEDMKSEEGTSTSTDGVPASAGNKKKLLKKKKGQKKSKTGESEEHDEDSTVEDAGEDTIVENLEIKKNQETPNSEHDIEMKDASKDSTPSVQISIAEKELIVSKPATCELIQCCVEKSEGWSVSELERLSSVLSHTIERFRDEWNRENLPAQLTQIVREWQTADDSNNTIVNGTLNKSNGNLANGH | not soluble |
| YKEEDSTVSILPTSLPQIHRANMLAQGSPAASKISPLVTKKSKTRWHFGIRSRSYPLDVMGEIYIALKNLGAEWAKPSEEDLWTIKLRWKYDIGNKTNTNEKIPDLMKMVIQLFQIETNNYLVDFKFDGWESSYGDDTTVSNISEDEMSTFSAYPFLHLTTKLIMELAVNS | soluble |
| MAKSRTIYVCAECGGTSLKWQGKCPHCSAWNTLEETVESAAPSAGGHRYAPLAAASPVRSLSEIEARETPRQPTGLDEFDRVLGGGLVAGAVVLIGGDPGIGKSTLLLQALASLSATTKVLYVTGEESAEQVALRARRLGLQTGNVDLLAEIRLEAIQAAVSEQKPTVAVIDSIQTLYSGELTAAPGSVSQVRECAAQLTRLAKQTGIAIVMIGHVTKDGALAGPRVLEHIVDTVLYFEGDTHSSFRLVRAFKNRFGAVNELGVFAMTDRGLRGVANPSALFLSQHQQQVAGSCVLATQEGTRPLLVEVQALVDTSHAPNPRRLTVGLEGNRLAMLLAVMHRHAGVSTYDQDVFVNAVGGVRITEPAADLPVLLAIMSSLRDKPLPAGLVAFGEIGLAGEIRPAPRGQERLREAAKLGFSVALIPKANAPRQPIEGLEIWAVDRLDAALDKLRLEHHHHHH | soluble |
| MCSKQSANQQISYRQTAEATLDKGMDNQPEAPYWFPKQLLKWQLSKDKAAKYNTASVPLAKRIDKWQLPTVNKTQDPKMKVVALSIMNSSTSGNAPRGINTFDANVFSNWQYIDQLVYWGGSAGEGLIVPPTADVIDSAHKNGVPVLGTVFFPQVVSGGKLKWLNDFLKQDADGHFPMADKLVAVAKAYGFDGWFINQETDPEVKSFDSASTGKTATSSTSNGLSKKHAQLMQQLIKEYKQKAGSKLDLMWYDSMTKDGKMDWQNALTKENQSYLVDANMKPVADSMFLNFWWTKKRLASQELLKKSHERAEKLGISPYNLFAGIDVQADGTATPVRWNLFANKQHVPYTSLGLYAPDWTHASSDTVDEFQAKEGALWVNDQNDPSRSIPSTTSTHWPGVSTYAVEQSAITKQPFVTNFSLGNGYNYFIKLEHHHHHH | not soluble |
| MGGDFGPSVTVPAALQALNSNSQLTLLLVGNSDAITPLLAKADFEQRSRLQIIPAQSVIASDARPSQAIRASRGSSMRVALELVKEGRAQACVSAGNTGALMGLAKLLLKPLEGIERPALVTVLPHQQKGKTVVLDLGANVDCDSTMLVQFAIMGSVLAEEVVEIPNPRVALLNIGEEEVKGLDSIRDASAVLKTIPSINYIGYLEANELLTGKTDVLVCDGFTGNVTLKTMEGVVRMFLSLLKSQGEGKKRSWWLLLLKRWLQKSLTRRFSHLNPDQYNGACLLGLRGTVIKSHGAANQRAFAVAIEQAVQAVQRQVPQRIAARLESVYPAGFELLDGGKSGTLR | soluble |
| WLRPAFAGKTRLDALDEAAFEQAVKSLLSWTQHALIDRHVPAHIIVPSGMGRHIDYGLADDGTPQPPVLSVKLQELFGLPDTPRIAKNRIPLTLHLLSPGGRPLQVTQDLKSFWTNTYPEVKKEMKGRYPKHPWPDDPWTATATHRTKSPGK | not soluble |
| MKPKTRLYYAERLEPVLAWLAARPDADADLHRLAELACLSPYYFHRVYRALLGETVHATVQRMRLARASVALAQGKGSLRQVADRAGYASEAAFSRAFSAQYGLPPGRYRAKRSSPFNPEELRMYPLTMEDFPGLSLAILAHQGDYQEIGNTFDRLALLAAIQDLVRDGMQPPPRYIGVYYDDPAQVARDALRSRAGVSLPPGTAAPAPFEPLDIPAMRCAVLEYTGPYSEIEAPYNWLFSQWLPASGQEPGDFPMFEEYLNDPKTTPAAQLKTRIYLPLA | not soluble |
| MFKHIISCLLLISATSALAAEKPTLTVYTYDSFAADWGPGPAIKQAFEAECDCQLKFVALEDGVSLLNRLRMEGKNSQADVILGLDNNLVQAAEQTGLFTPSQVDTRNLTLPEPWQNKTFVPYDYGYFAFVYNKEKLKNPPKSLHELISSKEPWKVIYQDPRTSTPGLGLMLWMQKVYGDQAPQAWQQLAQKTVTVTKGWSEAYGLFLKGEADLVLSYTTSPAYHLIAEKNNNYAAADFSEGHYLQVEVAGQLAASKQPELAQRFMQFIVTPAFQNHIPTGNWMYPVIKMDLPAGFETLAVPQTALQFDAKDVADNRSKWIQAWQSAVSR | not soluble |
